Data published in ChEMBL document CHEMBL6074635, “Replacement of the essential nitro group by electrophilic warheads towards nitro-free antimycobacterial benzothiazinones” (Eur J Med Chem, 2024).

Assays:
[1] = substrate: CC(C)=CCC/C(C)=C/CC/C(C)=C/CC/C(C)=C/COP(=O)(O)OC1O[C@H](CO)[C@@H](O)[C@H]1O; assay: (§1) Substrate activity at recombinant Mycobacterium tuberculosis DprE1 extracted from Escherichia coli BL21(DE3) assessed as Km incubated for 60 mins by resazurin dye based fluorescence plate reader analysis
[2] = substrate: CC(C)=CCC/C(C)=C/CC/C(C)=C/COP(=O)(O)O[C@@H]1O[C@H](CO)[C@@H](O)[C@H]1O; assay: as §1

B1: Decaprenylphosphoryl-beta-D-ribose oxidase (Mycobacterium tuberculosis (strain ATCC 25618 / H37Rv)), P9WJF1 (protein)
chain: MLSVGATTTATRLTGWGRTAPSVANVLRTPDAEMIVKAVARVAESGGGRGAIARGLGRSYGDNAQNGGGLVIDMTPLNTIHSIDADTKLVDIDAGVNLDQLMKAALPFGLWVPVLPGTRQVTVGGAIACDIHGKNHHSAGSFGNHVRSMDLLTADGEIRHLTPTGEDAELFWATVGGNGLTGIIMRATIEMTPTSTAYFIADGDVTASLDETIALHSDGSEARYTYSSAWFDAISAPPKLGRAAVSRGRLATVEQLPAKLRSEPLKFDAPQLLTLPDVFPNGLANKYTFGPIGELWYRKSGTYRGKVQNLTQFYHPLDMFGEWNRAYGPAGFLQYQFVIPTEAVDEFKKIIGVIQASGHYSFLNVFKLFGPRNQAPLSFPIPGWNICVDFPIKDGLGKFVSELDRRVLEFGGRLYTAKDSRTTAETFHAMYPRVDEWISVRRKVDPLRVFASDMARRLELL
**Q.** Which results are given for B1?
**A.** Km [1]: 33 µM; Km [2]: 740 µM
